The target in this assay is GRA4 (UniProt Q27002). Briefly: exogenous co-IP. The note with it: reference: wild type TBK1; sites S172.

Regarding TBK1 (from UniProt Q9UHD2) TBK1 S172A, the “binding against the reference” value was “weaker”.

Source of the values: PMC11348266.
